Reference: PMC3275592, “Structural and Functional Insights into Endoglin Ligand Recognition and Binding” (PLoS ONE, 2012)
One block for each molecule: values may come before it.

B2: LG-EndoEC, full length extracellular region of human endoglin (residues 22-587), low glycosylation (domain or fragment, UniProt P17813 22-587, looked up)
chain: TSLAETVHCDLQPVGPERGEVTYTTSQVSKGCVAQAPNAILEVHVLFLEFPTGPSQLELTLQASKQNGTWPREVLLVLSVNSSVFLHLQALGIPLHLAYNSSLVTFQEPPGVNTTELPSFPKTQILEWAAERGPITSAAELNDPQSILLRLGQAQGSLSFCMLEASQDMGRTLEWRPRTPALVRGCHLEGVAGHKEAHILRVLPGHSAGPRTVTVKVELSCAPGDLDAVLILQGPPYVSWLIDANHNMQIWTTGEYSFKIFPEKNIRGFKLPDTPQGLLGEARMLNASIVASFVELPLASIVSLHASSCGGRLQTSPAPIQTTPPKDTCSPELLMSLIQTKCADDAMTLVLKKELVAHLKCTITGLTFWDPSCEAEDRGDKFVLRSAYSSCGMQVSASMISNEAVVNILSSSSPQRKKVHCLNMDSLSFQLGLYLSPHFLQASNTIEPGQQSFVQVRVSPSVSEFLLQLDSCHLDLGPEGGTVELIQGRAAKGNCVSLLSPSPEGDPRFSFLLHFYTVPIPKTGTLSCTVALRPKTGSQDQEVHRTVFMRLNIISPDLSGCTSKGL
modifications: short, well defined sugars of the type Man5NAG2 (low glycosylation); putative Asn glycosylation sites Asn88, Asn102, Asn121, Asn134 and Asn307 (Asn306 in Figure 1)
notes: endoglin, human, extracellular region, residues 22-587; Dimeric and monomeric species seen on gels; also called endoglin ectodomain; source: HEK293S GnTI- suspension cells, transfected, secreted, purified (HisTrap, gel filtration); not shown: 6xHis, C-terminal, kept

Tests used:
[1] = biological target: Bone morphogenetic protein 9 (BMP-9) (human) (UniProt Q9UK05); experiment: SPR; Biacore T100; BMP-9 immobilised on CM5 chip by amine coupling; analyte alone at six concentrations 12.5-400 nM; 25°C; 10 mM HEPES pH 7.4, 150 mM NaCl, 3 mM EDTA, 0.05% P20; 1:1 binding model, global fit; apparent KD; triplicates
[2] = biological target: Endo362, endoglin orphan domain construct with the linker region (residues 22-361 or 22-362) (human) (UniProt P17813); experiment: SDS-PAGE under reducing and non-reducing conditions with anti-His6 western blot; 10% SDS gel, 0.5 µg protein; with or without 10 mM DTT (1 h, 65°C); boiled at 95°C for 5 min; disulfide-linked dimer
[3] = biological target: T1, HG-EndoEC, full length extracellular region of human endoglin (residues 22-587), high glycosylation (human, UniProt P17813 22-587, mature, branched sugars (high glycosylation); putative Asn glycosylation sites Asn88, Asn102, Asn121, Asn134 and Asn307 (Asn306 in Figure 1)); experiment: SPR; Biacore T100; endoglin coinjected with a constant saturating concentration of HG-ALK1EC over immobilised BMP-9; 25°C; 10 mM HEPES pH 7.4, 150 mM NaCl, 3 mM EDTA, 0.05% P20; 1:1 binding model; conditions: both partners purified
T1 construct: endoglin, human, extracellular region, residues 22-587; EndoEC dimerized to some extent through a disulfide bond; also called endoglin ectodomain; source: HEK293 FreeStyle (HEK293F), transfected, secreted, purified (HisTrap, gel filtration)
T1 sequence (looked up): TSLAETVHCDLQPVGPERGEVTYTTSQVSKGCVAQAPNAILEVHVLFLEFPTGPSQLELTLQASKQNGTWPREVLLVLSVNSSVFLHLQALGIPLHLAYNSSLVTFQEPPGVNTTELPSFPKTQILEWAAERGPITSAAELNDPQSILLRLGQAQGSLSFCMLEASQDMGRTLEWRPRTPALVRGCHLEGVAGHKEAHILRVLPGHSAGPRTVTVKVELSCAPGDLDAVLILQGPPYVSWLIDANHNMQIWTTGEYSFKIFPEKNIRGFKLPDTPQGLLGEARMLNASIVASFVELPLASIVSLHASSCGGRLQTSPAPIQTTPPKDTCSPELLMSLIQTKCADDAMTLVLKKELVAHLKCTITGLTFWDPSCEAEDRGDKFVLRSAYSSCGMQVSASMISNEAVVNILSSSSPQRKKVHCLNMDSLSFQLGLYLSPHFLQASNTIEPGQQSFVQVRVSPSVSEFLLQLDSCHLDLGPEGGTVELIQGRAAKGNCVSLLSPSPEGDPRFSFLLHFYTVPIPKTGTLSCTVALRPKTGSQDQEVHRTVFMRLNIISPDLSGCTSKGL

[4] = biological target: B2; experiment: as above; conditions: both partners purified
[5] = biological target: T2, Endo338, endoglin orphan domain construct (residues 22-337) (human, UniProt P17813 22-337, Man5NAG2 glycans (5 modelled at their attachment sites)); experiment: SPR; Biacore T100; BMP-9 immobilised on CM5 chip by amine coupling; analyte alone at six concentrations 12.5-400 nM; 25°C; 10 mM HEPES pH 7.4, 150 mM NaCl, 3 mM EDTA, 0.05% P20; 1:1 binding model, global fit; apparent KD; triplicates; conditions: both partners purified
T2 construct: also called Endoglin338; OD; source: HEK293S GnTI- suspension cells, transfected, secreted, purified (HisTrap, gel filtration); not shown: 6xHis, C-terminal, kept
T2 sequence (looked up): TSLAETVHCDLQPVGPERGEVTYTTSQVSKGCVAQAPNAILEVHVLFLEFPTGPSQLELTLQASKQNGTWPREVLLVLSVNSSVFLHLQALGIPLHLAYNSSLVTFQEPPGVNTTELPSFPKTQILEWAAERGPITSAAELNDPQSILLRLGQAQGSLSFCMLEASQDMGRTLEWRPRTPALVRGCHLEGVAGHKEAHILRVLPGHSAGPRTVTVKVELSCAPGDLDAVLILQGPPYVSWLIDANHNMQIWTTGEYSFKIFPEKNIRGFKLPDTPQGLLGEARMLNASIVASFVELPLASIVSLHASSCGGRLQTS

[6] = biological target: T1, HG-EndoEC, full length extracellular …; experiment: as above; conditions: both partners purified
[7] = biological target: B2; experiment: as above; conditions: both partners purified
[8] = biological target: the molecule itself; experiment: SDS-PAGE under reducing and non-reducing conditions with anti-His6 western blot; 10% SDS gel, 0.5 µg protein; with or without 10 mM DTT (1 h, 65°C); boiled at 95°C for 5 min; disulfide-linked dimer

Kd [1]: 8.96 nM | koff [1]: 0.00108 s⁻¹ | kon [1]: 120000 M⁻¹ s⁻¹ | stoichiometry N [2]: 2
Molecule: Endo362, endoglin orphan domain construct with the linker region (residues 22-361 or 22-362) (from UniProt P17813 22-361) (domain or fragment)

Kd [3]: 14.7 nM | koff [3]: 0.00153 s⁻¹ | kon [3]: 274000 M⁻¹ s⁻¹ | Kd [4]: 3.27 nM | koff [4]: 0.000925 s⁻¹ | kon [4]: 283000 M⁻¹ s⁻¹ | Kd [5]: 276 nM | koff [5]: 0.254 s⁻¹ | kon [5]: 914000 M⁻¹ s⁻¹ | Kd [6]: 9.94 nM | koff [6]: 0.00207 s⁻¹ | kon [6]: 208000 M⁻¹ s⁻¹ | Kd [7]: 2.01 nM | koff [7]: 0.000891 s⁻¹ | kon [7]: 442000 M⁻¹ s⁻¹
B1: Bone morphogenetic protein 9 (BMP-9) (ligand, human, UniProt Q9UK05 320-429, looked up)
chain: SAGAGSHCQKTSLRVNFEDIGWDSWIIAPKEYEAYECKGGCFFPLADDVTPTKHAIVQTLVHLKFPTKVGKACCVPTKLSPISVLYKDDMGVPTLKYHYEGMSVAECGCR
notes: BMP-9, human, carrier-free protein from R&D Systems; Immobilised on a CM5 chip by amine coupling; also called Bone Morphogenetic Protein (BMP)-9; source: bought: R&D Systems (carrier free)

Molecule: B2
stoichiometry N [8]: 2
